Reference: patent US20250250361A1, “ANTI-PLA2G10 ANTIBODIES AND METHODS OF USE” (Yale University, priority 2022, published 2025)
“Also recorded” adds a separate entry of the source.

B1: anti-PLA2G10 antibody 1C11 (mouse IgG2a) (antibody, V domains shown)
VH: QVTLKESGPGILHPSQTLSLTCSFSGFSLNTFGLGVGWVRQPSGKGQEWLAHIWWDDDRYYNPPLKSRLTISKDPSKNQVFLTIPNVNTANTATYYCTQILPHWVAYWGQGTTLTVSS
VL: DIQMNQSPSSLSASLGDTITISCHASQNINVWLSWYQQKPGNIPKLLIYKASNLHTGVPSRFSGSGSGTGFTFTISSLQPEDIATYFCQQGQSYPFTFGGGTKLELK
notes: also called 1C11 antibody; anti-PLA2G10 mAb IC11
B2: 1C11: anti-PLA2G10 antibody clone, VH SEQ ID NO: 1, VL SEQ ID NO: 2; binds human and mouse PLA2G10 (antibody, V domains shown)
VH: B1 VH
VL: B1 VL

Legend:
[1] = system: T cell migration inhibited by PLA2G10; experiment: high throughput T cell mobility assay (TCMA); assay type: cell-based; conditions: activated primary human T cells from 3 donors, CXCL11 100 ng/ml
Description: A high throughput T cell mobility assay (TCMA) was performed to assess the ability of the antibody clones identified in Example 1 and varespladib (a small molecule PLA2G10 inhibitor) to attenuate the inhibitory effect of PLA2G10 on T cell migration. The TCMA was built by modifying Boyden's two-chamber assay in a 96-well format, in which two chambers were separated by a porous membrane. While activated T cells on the upper chamber are largely held by the membrane, exposure to chemokines allows T cells to transpass the membrane and migrate into the lower chamber. In the assay, HEK293T cells 5×10^4 were seeded in a reservoir plate (the lower chambers) arrayed with human secretory molecule encoding genes and transiently transfected using jetPRIME® transfection reagent (Polyplus transfection) as described previously (Yao et al., (2011) Immunity 34:729-740). After overnight incubation, the culture supernatant was replaced by a fresh migration medium (RPMI-1640 containing 1% fetal calf serum from Atlanta Biologicals) and further cultured for 2-3 days. […] At the end of incubation, the upper chamber was removed, and cells in the lower chambers were collected and stained with AF647-labeled anti-human CD45 mAb (clone 2D1, Biolegend) and numerated by the Mirrorball® plate reader (TPP Labtech). […]

[2] = target: T1, recombinant human PLA2G10 protein (Origene) (human, UniProt O15496 43-165, limits assumed); experiment: one-way ELISA, plates coated with human PLA2G10 (Origene)
T1 construct: also called rhPLA2G10; hPLA2G10
T1 sequence (looked up): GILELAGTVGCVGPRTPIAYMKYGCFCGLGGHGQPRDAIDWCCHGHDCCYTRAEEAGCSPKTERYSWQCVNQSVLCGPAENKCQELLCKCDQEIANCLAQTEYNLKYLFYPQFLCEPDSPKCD
Description: (§1) A one-way ELISA was performed to assess antibody binding to PLA2G10. Plates were coated with either human PLA2G10 (Origene) or mouse PLA2G10 (NP285) at 0.5 mg/ml and tested using a PLA2G10 ELISA kit (Elabscience, China) per the manufacturer's instructions. Testing results were normalized as (Vt−Vm)/Vm, where Vt indicates the value calculated according to the standard curve and Vm indicates the mean value of all samples tested on the same ELISA plate.

MC38-2G10 tumors = experiment: MC38-2G10 syngeneic tumor model; assay type: in vivo; conditions: established tumors in mice, antibodies at 6, 11 and 16 days after inoculation
Description: FIG. 4 is a graph showing MC38-2G10 tumor growth in mice over time with anti-PLA2G10 antibody 1C11, anti-PD-1 antibody G4, or combined treatment. Mice were treated with antibodies at 6, 11, and 16 days after tumor inoculation. Representative results of two independent experiments are shown as the mean±SEM. Data were analyzed by two-way ANOVA. * p<0.05, ns=not significant.
To investigate the in vivo effects of anti-PLA2G10 antibody 1C11, a tumor cell line, MC38-2G10, was established by lentivirus-mediated gene transduction to stably express murine PLA2G10 homolog.

[3] = target: T2, recombinant human PLA2G10 (rhPLA2G10) (Homo sapiens, UniProt O15496); experiment: sPLA2 assay kit, phospholipase enzymatic activity of human PLA2G10; assay type: biochemical; conditions: rhPLA2G10 2.5 μg/ml, antibody 25 μg/ml, RT 30 minutes preincubation
T2 sequence (O15496 43-165): T1 sequence (looked up)
Description: (§2) The PLA2G10 enzymatic activity for hydrolysis of phospholipids was tested using a sPLA2 assay kit (Cayman Chemical, MI) according to manufacturer's instructions. Briefly, the 1,2-dithio analog of diheptanoyl phosphatidylcholine serves as a substrate for sPLA2s. Upon hydrolysis of the thioester bond at the sn-2 position by PLA2G10, free thiols are detected using DTNB (5,5′-dithio-bis-(2-nitrobenzoic acid)). Recombinant human PLA2G10 protein (rhPLA2G10) (0.5 μg, 2.5 μg/ml final concentration) was incubated with 1C11 antibody (5 μg, 25 μg/ml final concentration) at RT for 30 minutes before testing. Mouse PLA2G10 protein (mPLA2G10-IgFc) (0.32 mg/ml) was incubated with 1C11 or 2B12 antibody (1 mg/ml) at 37° C. for 45 minutes before testing.

HT-29 tumors = experiment: HT-29 xenograft tumor model in NSG mice; assay type: in vivo; conditions: compared to control
Description: FIG. 6A is a graph showing HT29 xenograft tumor growth over time with anti-PLA2G10 antibody 1C11 or control treatment. Data were analyzed by one-way ANOVA. * p<0.01. FIG. 6B is a series of pictures showing 1C11 or control antibody treated tumors at day 37. Tumors were surgically removed, formalin-fixed, and sectioned. Tumor tissue sections were studied by immunohistochemistry using an anti-human CD3 mAb. FIG. 6C is a graph showing quantification of CD3+ T cells in control antibody or 1C11 treated tumors (hpf, high power field x400). Cell numbers of ten […] hpfs were randomly picked in each sample for counting and average cell counts were plotted. Box whisker plots depict the mean, the minimum to the maximum value, and each data point was shown. Data were analyzed by the Mann-Whitney test. * p<0.05.
The human colon adenocarcinoma cell line HT-29 secretes PLA2G10 and forms tumors when inoculated in immunodeficient NSG (NOD scid gamma) mice subcutaneously.

mouse PLA2G10 = target: T3, mouse PLA2G10 (Mus musculus, UniProt Q9QXX3); experiment: one-way ELISA, antibody binding to mouse PLA2G10; conditions: plates coated with mouse PLA2G10
T3 construct: NP285
T3 sequence (Q9QXX3 29-151): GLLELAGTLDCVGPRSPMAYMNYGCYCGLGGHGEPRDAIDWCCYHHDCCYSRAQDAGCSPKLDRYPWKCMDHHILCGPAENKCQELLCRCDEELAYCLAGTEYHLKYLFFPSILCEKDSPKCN
Description: as §1

[4] = system: mouse PLA2G10 (mPLA2G10-IgFc); experiment: sPLA2 assay kit, phospholipase enzymatic activity of mouse PLA2G10; assay type: biochemical; conditions: mPLA2G10-IgFc 0.32 mg/ml, antibody 1 mg/ml, 37° C. 45 minutes preincubation
Description: as §2

human PLA2G10 = target: T4, human PLA2G10 (Homo sapiens, UniProt O15496); experiment: one-way ELISA, antibody binding to human PLA2G10; conditions: plates coated with human PLA2G10
T4 construct: purchased Origene
T4 sequence (O15496 43-165): T1 sequence (looked up)
Description: as §1

KPC-2G10 tumors = experiment: KPC-2G10 syngeneic tumor model; assay type: in vivo, mice
Description: FIG. 5A is a graph showing KPC-2G10 tumor growth in mice over time with anti-PLA2G10 antibody 1C11, anti-PD-1 antibody G4, or combined treatment. Mice were treated with antibodies at 5, 10, and 15 days (+20-day treatment for 1C11) after tumor inoculation. Representative results of two independent experiments are shown as the mean±SEM. Data were analyzed by one-way ANOVA. FIG. 5B is a graph showing quantification of CD3+T cells by immunohistochemistry staining with an anti-CD3 mAb in the KPC-2G10 tumors with or without 1C11 treatment. Cell numbers of five hpfs were randomly picked in each sample for counting and average cell counts were plotted. Box whisker plots depict the mean, the minimum to the maximum value, and each data point was shown. Data were analyzed by the Mann-Whitney test. * p<0.05.
Similar results were also obtained in another syngeneic mouse model using the KPC pancreatic cancer subline, which has moderate TILs when growing subcutaneously (Sun et al., 2021, Sci Transl Med 4, 127ral37) (FIG. 5A).

[5] = CD3+ T cells by immunohistochemistry

Molecule	reversal of T cell migration inhibited by PLA2G10 [1]	binding result [2]	MC38-2G10 tumor growth (MC38-2G10 tumors)	inhibition of phospholipase enzymatic activity of human PLA2G10 [3]	T cell infiltration in HT-29 tumors (HT-29 tumors; [5])	HT-29 xenograft tumor growth (HT-29 tumors; subcutaneous)	binding to mouse PLA2G10 protein (mouse PLA2G10)	inhibition of phospholipase enzymatic activity of mouse PLA2G10 [4]	binding to human PLA2G10 protein (human PLA2G10)	T cell infiltration in KPC-2G10 tumors (KPC-2G10 tumors; [5])	KPC-2G10 tumor growth (KPC-2G10 tumors; syngeneic mice, subcutaneous, antibodies at 5, 10, 15 days)
CCc1c(C(=O)C(N)=O)c2c(OCC(=O)O)cccc2n1Cc1ccccc1 [varespladib, reference compound]	reversed										
B1		binds									
B2	reversed		did not induce the regression	inhibited	promoted T cell infiltration	retarded tumor growth	recognized; also recorded: showed binding	inhibited	recognized; also recorded: showed binding	promoted T cell infiltration	responded partially
